Patent US9266923B2, “Compositions and methods for treatment of thrombosis and for prolonging survival of stored platelets” (priority 2010, dated 2016)

Key:
[1] = target: T1, mouse platelet GPIbα (Mus musculus, UniProt O35930); test: In vivo activity in wild-type mice
T1 construct: endogenous in cells; host or cells: platelets of wild-type mice (in vivo)
T1 sequence (O35930 17-734): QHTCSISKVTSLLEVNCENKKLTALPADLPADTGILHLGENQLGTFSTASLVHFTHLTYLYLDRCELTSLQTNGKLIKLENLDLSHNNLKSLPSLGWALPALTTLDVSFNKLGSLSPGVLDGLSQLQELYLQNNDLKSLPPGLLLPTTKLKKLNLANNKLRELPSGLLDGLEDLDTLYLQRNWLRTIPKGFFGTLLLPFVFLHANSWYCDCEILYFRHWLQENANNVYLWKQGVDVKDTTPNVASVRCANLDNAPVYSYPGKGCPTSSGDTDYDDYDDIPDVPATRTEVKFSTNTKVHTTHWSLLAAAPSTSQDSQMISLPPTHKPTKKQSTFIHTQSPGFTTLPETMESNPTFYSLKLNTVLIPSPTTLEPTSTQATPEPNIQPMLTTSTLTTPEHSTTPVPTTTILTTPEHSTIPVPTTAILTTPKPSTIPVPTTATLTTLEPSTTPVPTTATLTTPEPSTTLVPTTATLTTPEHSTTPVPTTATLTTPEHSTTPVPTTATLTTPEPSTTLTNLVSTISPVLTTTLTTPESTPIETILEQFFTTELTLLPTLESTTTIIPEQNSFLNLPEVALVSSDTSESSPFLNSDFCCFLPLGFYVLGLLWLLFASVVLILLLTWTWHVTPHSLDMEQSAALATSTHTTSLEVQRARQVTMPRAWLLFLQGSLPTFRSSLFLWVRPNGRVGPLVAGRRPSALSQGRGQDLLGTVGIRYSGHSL
T1 sequence (P56400 27-206 partner): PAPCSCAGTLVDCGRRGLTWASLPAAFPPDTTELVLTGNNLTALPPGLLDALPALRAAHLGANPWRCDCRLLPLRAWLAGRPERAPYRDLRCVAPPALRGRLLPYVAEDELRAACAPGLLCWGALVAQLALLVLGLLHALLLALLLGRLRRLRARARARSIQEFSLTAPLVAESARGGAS
T1 sequence (O88186 17-177 partner): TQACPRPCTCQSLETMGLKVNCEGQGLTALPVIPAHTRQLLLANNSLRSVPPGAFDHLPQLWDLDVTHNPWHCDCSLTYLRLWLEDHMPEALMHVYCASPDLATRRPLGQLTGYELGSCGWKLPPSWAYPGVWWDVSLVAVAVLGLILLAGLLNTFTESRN
Source text: (§1) CCP-014 extended tail bleeding time, as measured in Ware et al., Id.

[2] = target: T2, human GPIbα (Homo sapiens, UniProt P07359); test: In vivo anti-thrombotic activity, tail bleeding time in transgenic mice expressing human GPIbα; set-up: species or system transgenic mouse
T2 construct: mice expressing human GPIbα; expressed in transfected cells; host or cells: platelets of transgenic mice (Ware et al., PNAS 97:2803-08 (2000))
Source text: as §1

T2 sequence (P07359 17-652, one chain of several): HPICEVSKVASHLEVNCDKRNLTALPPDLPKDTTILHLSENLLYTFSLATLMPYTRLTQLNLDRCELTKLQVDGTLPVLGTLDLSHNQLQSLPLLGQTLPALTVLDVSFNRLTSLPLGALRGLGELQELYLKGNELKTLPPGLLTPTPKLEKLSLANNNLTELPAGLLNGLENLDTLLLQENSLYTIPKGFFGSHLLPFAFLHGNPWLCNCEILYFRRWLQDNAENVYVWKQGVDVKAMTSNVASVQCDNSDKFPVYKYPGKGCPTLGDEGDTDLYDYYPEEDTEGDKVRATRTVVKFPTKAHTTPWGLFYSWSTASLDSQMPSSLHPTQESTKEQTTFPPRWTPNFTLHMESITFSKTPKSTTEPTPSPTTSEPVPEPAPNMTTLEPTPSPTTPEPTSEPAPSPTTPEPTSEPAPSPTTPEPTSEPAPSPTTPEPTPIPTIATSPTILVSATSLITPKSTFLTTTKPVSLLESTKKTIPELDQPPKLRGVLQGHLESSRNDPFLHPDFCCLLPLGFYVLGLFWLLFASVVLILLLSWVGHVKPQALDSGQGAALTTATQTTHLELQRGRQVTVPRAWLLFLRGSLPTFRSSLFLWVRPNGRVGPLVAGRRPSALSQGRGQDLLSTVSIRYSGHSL

## Ac-A C T E R M A L H N L C G G-NH2 (SEQ ID NO: 1) or Ac-A C T E R M A L H N L C G G K-NH2 (SEQ ID NO: 2) (Ac-ACTERMALHNLCGGK-NH2; cysteine pairing not given here) [CCP-014]
[1]
  activity in vivo: not active
[2]; mice expressing human GPIbα, measured as in Ware et al.
  tail bleeding time: extended
[2]; transgenic mice in which human GPIbα replaces the mouse platelet GPIbα
  activity in vivo: active
